We go through 17 sequences from the DeepSol protein solubility set.

The series in a line: soluble on expression in E. coli; label from the status in PepcDB or PDB records.
For “MKDKDLLVLAAKAADDKRAEDMVVLNMQGISPIADYFIICHGNSDKQVQAIAREIKAKAHEFQIDVQRMEGFDEARWVLVDLGDVVAHVFHKDERNHYNLERLWGDVPREDITEELGQLEHHHHHH”, the “soluble on expression in E. coli” value was “not soluble”.
To “MSNASSTSSGRSSRAEVLWADVLSHIPFVKRFTTPDSRKEQKVRILSKNEVDEEDGVQLEQLIQNQEVILCHSSSMNFHQQCRGSVVDFEYIEKKVKVTVSSESDFPIWEDTDIWMQALSTPTSSLYAIDANTSVNSELIEDESVVQEQKEQISERAPLRLSDDIEEFGDVLVDVIKKKTDTKNNVFTITLGLTGFARFHAEIQLSKESTYYLNFDDGYEDDLASLASEEDILSGYQTIQNVDELCDKIGELTVTDVCIKTWFDILHNYAYIRLIVTSAKRKLQHFKLLTGHHVIIQSATSDRDTVLAVVSRVMKDGIVLTLQGVKKQTKNFVFSKNELFTIQIDHNYEDRLQKLTGKEEEHENLRRELINSDSDIRLHRSWKSNGKQYATFTSKNDAFKKIPFNTKFLLGKCWEAEGVLEKKADFIFAIRVADKNFSTPSTMTFEIKFTRNLVRNSKDFELSKAFYYVDFDLAHFVESDHCYSLLNAKSVNGKPDETVVKSCPIDEDLVFSVFPFQCGRRAEERRRGYQESQREVQSSTKKPDVKVEKNVKLEAPEKQNKRKDTALNPKEKYCAQKLEKQLNDQTKTPKQKPKQETSAGIKRESTQRPCVIPRTFETSNSKDASNKVPLQSVSEPKILLQDTNSRCAQPRKAVSHEGLKSHQQENVLKHLDNKHKFLCFVNIAKRIENDNGNPLVELSIGFDENGGKVQQSPWPLGIRMLLTDGLEKTEVKIQGDVQDTNGETVTFMIQQQLSDLDFLNSYKPKKLLACFREHGHNLK” belongs “not soluble”.
To “MGSDKIHHHHHHMLDPSLLGHRFRRRPWAMFEVLTPLHIGNGNELTPVDFYPLGDRIIVLDTEKLINDLLRLGVEVEELLDFLRNPPGSLYLWRGYLEKLHLDPRNYARYSLRIRGELGRESSRIKEFIKIKGKPYIPGTSLKGAIRTAVLYKVLKDCGDVPTVVEALGKYGKTTGNIIRAITHPGNQDLLDYYLFYLGRGNVRGKQADDILEAIVFGFEAERRFRYEPKRDPMKALIVRDSRLIPLDNLSVYEVRVVGWGSSIPIWVEALDPGTRFEAEVKVDRELLRIGSDYFNGLLWHCLAGEDFEEFVWKAVEEFYGELAKLDNVKERDVIRLGWGSGWISMTVGILLMRKRGWERVRRKLGLGKNPHTNKIVERFPKTKRLANGQPMGWIKI” belongs “not soluble”; to “MIIKIGTDRFWVKASNIERWAEILKSLPKKIPCSSKKDIARDYLGYKVDESGRIVNADEVYGLFGAEKDKDSLTIVGCNFIKEIEGGYELTEGAIELVERFKHNEEWEKVLGSQLLKYSIRIRTIAYAMLNGGYLYFEKGYMENFAKAYITLNDKKFYVFSSKPDEMNINSLMKENQSKILGDFWRKELDIGDGEEIEFRGVNKDYPSLGSMSTYLKIPMLLFDYLGWIVESEDGRYVLDKHKIKEDAGIDVYESLVNEADVDDIEILHKLIKEYSDARGFFPIGIVGSILKKKIDSENSMAEEQWIDHYFVTGINKGKFIIKDHEQGQPRHGRGLLGKKDYQLIKLEIRD”, “not soluble”.
To “MGSDKIHHHHHHMLMPDAPSNTESLPTSVDLAGEYQASGVAEILDELDRELVGLKPVKQRIRETAALLLVERARRAMGLSHEPPSLHMSFTGNPGTGKTTVALRMANLLHRLGYIRKGHLVSVTRDDLVGQYIGHTAPKTKEILKKAMGGVLFIDEAYYLYRPDNERDYGQEAIEILLQVMENNRDDLVVILAGYADRMDRFFESNPGFRSRIAHHIDFPDYDNGELLSIAESMLSRQGYRFDSKASAVMSDYIARRRRQPHFANARSIRNALDRARLRQANRLFEESAGPVDAEQLSTITARDIAASRVFATVEPSHTETSP” belongs “not soluble”.
Consider “MSSDSDSDFGKEASKTPKRRITDCLFDSDDEVLESPGREELRKLLLSDYEDVGSVTIDTPKLKNRNVRLRGAGRPQKGGDDYKDYGRSEMEQFLRLVSDKPFLWHTKDSDFHRKKEKGMPAWAEIERTCNTFMGKGRTPGKTAAALFKKMATTYKSHLTRIQKAPSGSAVTPKKDLFCYAELMSFMDEDITHRAPTCSFIVGAGPDVDVLPTETSSSKKK”, for which the “soluble on expression in E. coli” value is given as “not soluble”.
Turning to “MLRSLVQNPKVRARVLERVDEFRLNNLSNEEVWFRELTLCLLTANSSFISAYQALNCLGQKIYYANEEEIRNILKSCKYRFYNLKAKYIIMAREKVYGRLKEEIKPLADEDQQLARERLLNIKGIGMQEASHFLRNVGYFDLAIIDRHIIDFMRRIGAIGETNVKQLSKSLYISFENILKSIASNLNMSVGILDLFIWYKETNTIVK”, the “soluble on expression in E. coli” value is recorded as “soluble”.
Take “SMPAYACQRPSPLTHHNTLLSEALETLAEAAGFEANEGRLLSFSRAASVLKSLPCPVASLSQLHGLPYFGEHSTRVIQELLEHGTCEEVKQVRCSERYQTMKLFTQVFGVGVKTANRWYQEGLRTLDELREQPQRLTQQQKAGLQYYQDLSTPVRRADAEALQQLIEAAVRQTLPGATVTLTGGFRRGKLQGHDVDFLITHPEEGQEVGLLPKVMSCLQSQGLVLYHQYHRSHLADSAHNLRQRSSTMDVFERSFCILGLPQPQQAALAGALPPCPTWKAVRVDLVVTPSSQFPFALLGWTGSQFFERELRRFSRQEKGLWLNSHGLFDPEQKRVFHATSEEDVFRLLGLKYLPPEQRNA”: the “soluble on expression in E. coli” value is “soluble”.
For “MTRVLVLGGGSGGLVAANKVKRLLGKEVEVTLVDRNTHHEFMPAYPWVAFGMREPEAIRRPLANLEKRGIRYLQATVEALDPERNRVKTTAGELSYDYLIVSLGAEALPSPAQDGHAPWSLEGALKLREALRTFKGGKVVVGVSSPYYPCPPAPYEVAGQVEFALKVKGVRDKSTVEVFHLNPAPLAGMGPVISGKVLEILKSKGIAFHGGFEPVEFAGGKVKAKDGRELSYDLLILTPPFAPNRVVRESPLAGPQGFPEVDRMTFRSPRFPNVFVIGDTVNPALMLPPAGVVAHFQGEYVAGVIASDLKGAYIGEPFNPVAMCIMDFGDNALLPQCAFDRVLAGTGMPSCGVMAVGKWVRVTKMLFEGFWFATLIELEHHHHHH”, the “soluble on expression in E. coli” value is given as “soluble”.
To “MPLRHWGMARGSKPVGDGAQPMAAMGGLKVLLHWAGPGGGEPWVTFSESSLTAEEVCIHIAHKVGITPPCFNLFALFDAQAQVWLPPNHILEIPRDASLMLYFRIRFYFRNWHGMNPREPAVYRCGPPGTEASSDQTAQGMQLLDPASFEYLFEQGKHEFVNDVASLWELSTEEEIHHFKNESLGMAFLHLCHLALRHGIPLEEVAKKTSFKDCIPRSFRRHIRQHSALTRLRLRNVFRRFLRDFQPGRLSQQMVMVKYLATLERLAPRFGTERVPVCHLRLLAQAEGEPCYIRDSGVAPTDPGPESAAGPPTHEVLVTGTGGIQWWPVEEEVNKEEGSSGSSGRNPQASLFGKKAKAHKAVGQPADRPREPLWAYFCDFRDITHVVLKEHCVSIHRQDNKCLELSLPSRAAALSFVSLVDGYFRLTADSSHYLCHEVAPPRLVMSIRDGIHGPLLEPFVQAKLRPEDGLYLIHWSTSHPYRLILTVAQRSQAPDGMQSLRLRKFPIEQQDGAFVLEGWGRSFPSVRELGAALQGCLLRAGDDCFSLRRCCLPQPGETSNLIIMRGARASPRTLNLSQLSFHRVDQKEITQLSHLGQGTRTNVYEGRLRVEGSGDPEEGKMDDEDPLVPGRDRGQELRVVLKVLDPSHHDIALAFYETASLMSQVSHTHLAFVHGVCVRGPENIMVTEYVEHGPLDVWLRRERGHVPMAWKMVVAQQLASALSYLENKNLVHGNVCGRNILLARLGLAEGTSPFIKLSDPGVGLGALSREERVERIPWLAPECLPGGANSLSTAMDKWGFGATLLEICFDGEAPLQSRSPSEKEHFYQRQHRLPEPSCPQLATLTSQCLTYEPTQRPSFRTILRDLTRLQPHNLADVLTVNPDSPASDPTVFHKRYLKKIRDLGEGHFGKVSLYCYDPTNDGTGEMVAVKALKADCGPQHRSGWKQEIDILRTLYHEHIIKYKGCCEDQGEKSLQLVMEYVPLGSLRDYLPRHSIGLAQLLLFAQQICEGMAYLHSQHYIHRDLAARNVLLDNDRLVKIGDFGLAKAVPEGHEYYRVREDGDSPVFWYAPECLKEYKFYYASDVWSFGVTLYELLTHCDSSQSPPTKFLELIGIAQGQMTVLRLTELLERGERLPRPDKCPCEVYHLMKNCWETEASFRPTFENLIPILKTVHEKYQGQAPSVFSVC” belongs “soluble”; to “MAHHHHHHMKARSSRPVTTITVTSEETIQTHNARDTPRTFEYKTKRNELMRRLEEMRNALEEDNNNNNKGSRVKLCYYDITFNCRDPVDVTVMSGFQRFEGLGDTLSGHMKCEEDDRHKFVGLIKEIIQLDVSHRARNMDKSEIAVVRIAANFKELNSTFTRSAATLL”, “not soluble”; to “MSTDAFYSTAFPTIPGTPNLLGYTAYSPQSIFNDSRPASSVNNTPSTSFNSSIHSRNRSIAMLHSISHILSNDDSLGSTTESSTPSTPEIHPSNAPAKKTIPLVLISDTDEECDKKSRKRRIRSKSSKKSRGIRKSRKHEASDYRKKIMLGTFEGRKIVLKLMK”, “not soluble”.
As to “MNHSIPTLRTERLTLRPLAMADFPAYRDFMASPRSTGVGGPYDLPSTWGVFCHDLANWHFFGHGALMIDLGETGECIGQIGINHGPLFPEKELGWLLYEGHEGRGYAAEAAVALRDWAFETLNLPTLVSYVSPQNRKSAAVAERIGGTLDPLAPRSDPEDLVYRYHQVKTA”, the “soluble on expression in E. coli” value is “soluble”.
In the case of “MGHHHHHHSHSKKPYIVTIACTKGGSAKSTNAANIGAFCADHGLRTLLIDTDTQPTLSSYYSLAKTAPGGIYEFLLQRDVEPSHIVSQTSIKNLDLIQSNDPSNNVSHMLRNAPDGSIRFSHLIKSINNYDVIVIDTRGTRDITVDMSVLAADILFCPILPQILSAKEFIRGTIGMYQDLQTFESFGFKLPPLKAIANGVDNTNDVKFVMQKLHTLFANTFDESKTLLDFSIPYHVAYREAVTYALPVYRHSAVEYPVMQQLCC”, the “soluble on expression in E. coli” value is “not soluble”.
To “MSLQNAKLMLTCLAFAGLAALAGCSFPGVYKIDIQQGNVVTQDMIDQLRPGMTRRQVRFIMGNPLIVDTFHANRWDYLYSIQPGGGRRQQERVSLFFNDSDQLAGLNGDFMPGVSRDEAILGKEGSTTVTQPADQQKPEAQKEEPPKPGSTLEQLQREVDEAQPVPVPTPEPLDPSPQEGHHHHHH” belongs “soluble”; to “MGSDKIHHHHHHMRIAQVAPLWERVPPPAYGGIELVVGLLTDELVRRGHEVTLFASGDSISLANLVSVHPRALRLDSSVKEYGIYEMLQLSTVYERADEFDIIHSHMGCASLPYTKLVKTPTVHTLHGIFTPDNEKMFRYAKTEPFVSISDAQRDLRLGLNYVGTVYNGIDVNSYKFYPQPDEPPYLAFLGRISPEKGTHLAIEIAKKSGWHLKIAGKVDVVDVEYFEKEIKPLIDGKQIEYLGEADHTQKNVLMGGAVATLFPITWREPFGLVMVESMASGTPVIAMNLGSTTEVIAHGKTGFLCSNVEECVSAIAKVADLDRYTCREYVQNRFSLQAMTEGYEEVYRQILQQRFANNGHHRSTVALSKV”, “not soluble”; to “MMVVKVKMLYWVDEVGGRAESMEIELKPFGYRTAPITQWEVLIAAEDVEVEKGKPVIVRVEPVFLPGNTLVGPLSIMRHALGTLVDVVECGVPGRVEDEKCISRVLFLPVEDGVIKKGDMVGVLKVFYIKTGLLTRILGLEPPKVELKKGFHEANIVWRDNGNIYREPAKVTILGYMRSHIGVWELLVADETVRVKRGDVLRIRIKEVRLPPNTVVVPLPVMRNAFGTVLDVVQLGKPSRVEEEKTLHQAIFLAVEDGVIEEGDLIGVINVYYVGLGDFKPLVQDKPPQKVRIVYRSGDGIVKREVEVEPFGYRRSPVGKWEALIADESKPVRYGEPVVVKVKRVRVPPKTILYPLHIMRHAYGTVADVFCDCKPWKVEEGGEIKKVVFLPVMDGEIKEGELLGIINLHDVELSPLGRVRQWLDNWLTEMGRTFDEGDWPLWLEHHHHHH”, “soluble”.
